# From patent US5914109
# pKd: −log10 of the molar value.
# Legend:
# [1] = target: gp120 of HTLV-IIIB (HIV-1 isolate IIIB)
# [2] = target: heptapeptide PGRAFYT (pin 13) (HIV-1 strain MN); test: pin ELISA, heptapeptide on pin, mAb at 10 µg/ml
# [3] = target: heptapeptide RAFYTTK (pin 15) (HIV-1 strain MN); test: pin ELISA, heptapeptide on pin, mAb at 10 µg/ml
# [4] = target: heptapeptide HIGPGRA (pin 10) (HIV-1 strain MN); test: pin ELISA, heptapeptide on pin, mAb at 10 µg/ml
# [5] = target: heptapeptide GRAFYTT (pin 14) (HIV-1 strain MN); test: pin ELISA, heptapeptide on pin, mAb at 10 µg/ml
# [6] = target: heptapeptide IGPGRAF (pin 11) (HIV-1 strain MN); test: pin ELISA, heptapeptide on pin, mAb at 10 µg/ml
# [7] = target: heptapeptide GPGRAFY (pin 12) (HIV-1 strain MN); test: pin ELISA, heptapeptide on pin, mAb at 10 µg/ml
# [8] = target: gp120 of HTLV-IIIB (HIV-1 isolate IIIB); remark: listed apart in the source
# [9] = target: gp120 of HIV-1 isolate RF (HIV-1 isolate RF) (UniProt P04579)
# [10] = target: gp120 of HIV-1 isolate SF-2 (virus) (HIV-1 isolate SF-2) (UniProt P03378)
# [11] = target: gp120 of HIVMN (HIV-1 strain MN) (UniProt P05877)
# [12] = target: gp120 of HIV-1 isolate WMJ-2 (HIV-1 isolate WMJ-2)
# [13] = target: gp120 of HIV-1 isolate DU 7887-7 (HIV-1 isolate DU 7887-7)
# [14] = target: gp120 of HIV-1 isolate AL-1 (HIV-1 isolate AL-1)
# [15] = target: V3-CDC4 peptide (HIV-1 isolate CDC4); test: ELISA on V3 peptide coated plates, mAb at 10 µg/ml
# [16] = target: V3-WM52 peptide (HIV-1 isolate WM52); test: ELISA on V3 peptide coated plates, mAb at 10 µg/ml
# [17] = target: V3-SC peptide (HIV-1 isolate SC); test: ELISA on V3 peptide coated plates, mAb at 10 µg/ml
# [18] = target: V3-RF peptide (HIV-1 isolate RF); test: ELISA on V3 peptide coated plates, mAb at 10 µg/ml
# [19] = target: 20-mer V3 peptide of HIVSF2 (HIV-1 isolate SF-2); test: ELISA on V3 peptide coated plates, mAb at 10 µg/ml
# [20] = target: V3-NY5 peptide (HIV-1 isolate NY5); test: ELISA on V3 peptide coated plates, mAb at 10 µg/ml
# [21] = target: 23-mer peptide of the gp120 V3 loop of the MN strain of HIV-1 (HIV-1 strain MN); test: ELISA on V3 peptide coated plates, mAb at 10 µg/ml
# [22] = target: 22-mer V3 peptide of HXB2 (HIV-1 HXB2 (IIIB)); test: ELISA on V3 peptide coated plates, mAb at 10 µg/ml
# [23] = target: 20-mer V3 peptide of HIVSF2 (HIV-1 isolate SF-2); test: competition ELISA in solution at equilibrium (Friguet method)
# [24] = target: 22-mer V3 peptide of HXB2 (HIV-1 HXB2 (IIIB)); test: as above
substance,measurement,setting,value
human mAb 694-D (antibody),"50% neutralization, CEM-SS syncytium-forming assay, IgG concentration",[1],0.04 µg/mL
same,"90% neutralization, CEM-SS syncytium-forming assay, IgG concentration",[1],1.4 µg/mL
same,ELISA Reactivity (absorbance at 410 nm) (absorbance at 410 nm),[2],1.4
same,ELISA Reactivity (absorbance at 410 nm) (absorbance at 410 nm),[3],0.089
same,ELISA Reactivity (absorbance at 410 nm) (absorbance at 410 nm),[4],0.14
same,ELISA Reactivity (absorbance at 410 nm) (absorbance at 410 nm),[5],1.23
same,ELISA Reactivity (absorbance at 410 nm) (absorbance at 410 nm),[6],1.37
same,ELISA Reactivity (absorbance at 410 nm) (absorbance at 410 nm),[7],> 2
same,"neutralization endpoint, MT-4 cell killing assay",[8],0.78 µg/mL
same,"neutralization endpoint, MT-4 cell killing assay",[9],> 25 µg/mL
same,"neutralization endpoint, MT-4 cell killing assay",[10],0.04 µg/mL
same,"neutralization endpoint, MT-4 cell killing assay",[11],3.13 µg/mL
same,"neutralization endpoint, MT-4 cell killing assay",[12],6.25 µg/mL
same,"neutralization endpoint, MT-4 cell killing assay",[13],> 25 µg/mL
same,"neutralization endpoint, MT-4 cell killing assay",[14],0.04 µg/mL
same,minimum antigen concentration giving positive results (µg/ml of V3 peptide used to coat),[15],1
same,minimum antigen concentration giving positive results (µg/ml of V3 peptide used to coat),[16],0.6
same,minimum antigen concentration giving positive results (µg/ml of V3 peptide used to coat),[17],0.02
same,minimum antigen concentration giving positive results (µg/ml of V3 peptide used to coat),[18],1
same,minimum antigen concentration giving positive results (µg/ml of V3 peptide used to coat),[19],0.01
same,minimum antigen concentration giving positive results (µg/ml of V3 peptide used to coat),[20],1
same,minimum antigen concentration giving positive results (µg/ml of V3 peptide used to coat),[21],0.01
same,minimum antigen concentration giving positive results (µg/ml of V3 peptide used to coat),[22],0.1
same,pKd,[23],5.74
same,pKd,[24],4.92
